Results as given in paper PMC6477676, “Staufen2-mediated RNA recognition and localization requires combinatorial action of multiple domains”.

T1: mStau2 dsRBD3-4 (Mus musculus, UniProt Q8CJ67 207-375)
T1 sequence: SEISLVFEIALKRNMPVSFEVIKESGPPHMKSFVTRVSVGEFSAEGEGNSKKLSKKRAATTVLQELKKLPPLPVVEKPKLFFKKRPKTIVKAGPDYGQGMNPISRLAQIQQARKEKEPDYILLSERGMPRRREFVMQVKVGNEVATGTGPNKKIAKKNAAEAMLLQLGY

T2: mStau2 dsRBD1-2 (Mus musculus, UniProt Q8CJ67 8-181)
T2 sequence: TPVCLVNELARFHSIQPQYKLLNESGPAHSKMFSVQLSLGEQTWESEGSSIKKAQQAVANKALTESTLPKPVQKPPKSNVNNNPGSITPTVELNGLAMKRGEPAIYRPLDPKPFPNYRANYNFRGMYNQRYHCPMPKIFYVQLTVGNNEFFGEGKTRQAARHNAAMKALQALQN

T3: mStau2 dsRBD3 (Mus musculus, UniProt Q8CJ67 207-274)
T3 sequence: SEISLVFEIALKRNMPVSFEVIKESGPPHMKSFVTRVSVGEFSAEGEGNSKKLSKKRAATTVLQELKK

T4: mStau2 full-length (Mus musculus, UniProt Q8CJ67 1-570)
T4 sequence: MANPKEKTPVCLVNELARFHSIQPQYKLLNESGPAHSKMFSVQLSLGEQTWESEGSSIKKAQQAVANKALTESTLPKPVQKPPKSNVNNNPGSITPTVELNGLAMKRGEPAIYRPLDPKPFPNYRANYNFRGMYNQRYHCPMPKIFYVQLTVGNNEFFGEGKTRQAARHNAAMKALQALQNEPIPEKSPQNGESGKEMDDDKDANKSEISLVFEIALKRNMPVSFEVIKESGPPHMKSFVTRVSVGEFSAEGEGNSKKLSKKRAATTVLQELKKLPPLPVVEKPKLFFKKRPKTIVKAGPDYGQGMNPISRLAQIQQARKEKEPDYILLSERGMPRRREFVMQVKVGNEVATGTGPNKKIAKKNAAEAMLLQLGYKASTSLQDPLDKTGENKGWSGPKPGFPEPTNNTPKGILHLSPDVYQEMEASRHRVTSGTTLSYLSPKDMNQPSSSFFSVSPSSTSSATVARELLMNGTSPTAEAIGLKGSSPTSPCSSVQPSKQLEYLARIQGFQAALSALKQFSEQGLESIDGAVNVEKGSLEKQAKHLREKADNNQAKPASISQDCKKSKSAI

T5: mStau2 dsRBD4 (Mus musculus, UniProt Q8CJ67 307-375)
T5 sequence: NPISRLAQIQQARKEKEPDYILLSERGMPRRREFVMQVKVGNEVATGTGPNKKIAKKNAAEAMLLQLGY


Legend:
mStau2 dsRBD3-4 [1] = target: T1, mStau2 dsRBD3-4; test: EMSA; Kd micromolar; SPR: HBS-EP (10 mM HEPES pH 7.4, 150 mM NaCl, 3 mM EDTA, 0.005% P20); EMSA: 5 nM RNA, protein buffer (40 mM Bis-Tris pH 7, 150 mM NaCl, 2 mM DTT presumed), 4% glycerol, 30 ug/mL yeast tRNA, RT; NMR: 150 mM NaCl, 20 mM Na phosphate pH 7.0, 5 mM DTT, 298 K; settings: protein: recombinant; tags: HisSUMO removed; label: 5' 32P; hairpin, 3' ss extension
mStau2 dsRBD1-2 [2] = target: T2, mStau2 dsRBD1-2; test: as above; settings: protein: recombinant; tags: HisSUMO removed; label: 5' 32P; hairpin, 3' ss extension
mStau2 dsRBD3-4 [3] = target: T1, mStau2 dsRBD3-4; test: EMSA; SPR: HBS-EP (10 mM HEPES pH 7.4, 150 mM NaCl, 3 mM EDTA, 0.005% P20); EMSA: 5 nM RNA, protein buffer (40 mM Bis-Tris pH 7, 150 mM NaCl, 2 mM DTT presumed), 4% glycerol, 30 ug/mL yeast tRNA, RT; NMR: 150 mM NaCl, 20 mM Na phosphate pH 7.0, 5 mM DTT, 298 K; settings: protein: recombinant; tags: HisSUMO removed; label: 5' 32P; hairpin
mStau2 dsRBD3 = target: T3, mStau2 dsRBD3; test: EMSA; up to 5 uM; SPR: HBS-EP (10 mM HEPES pH 7.4, 150 mM NaCl, 3 mM EDTA, 0.005% P20); EMSA: 5 nM RNA, protein buffer (40 mM Bis-Tris pH 7, 150 mM NaCl, 2 mM DTT presumed), 4% glycerol, 30 ug/mL yeast tRNA, RT; NMR: 150 mM NaCl, 20 mM Na phosphate pH 7.0, 5 mM DTT, 298 K; settings: protein: recombinant; label: 5' 32P; hairpin
mStau2 full-length = target: T4, mStau2 full-length; test: EMSA; Kd low micromolar; SPR: HBS-EP (10 mM HEPES pH 7.4, 150 mM NaCl, 3 mM EDTA, 0.005% P20); EMSA: 5 nM RNA, protein buffer (40 mM Bis-Tris pH 7, 150 mM NaCl, 2 mM DTT presumed), 4% glycerol, 30 ug/mL yeast tRNA, RT; NMR: 150 mM NaCl, 20 mM Na phosphate pH 7.0, 5 mM DTT, 298 K; settings: protein: recombinant; tags: HisSUMO; label: 5' 32P; hairpin
mStau2 dsRBD1-2 [4] = target: T2, mStau2 dsRBD1-2; test: EMSA; comparable with dsRBD3-4; SPR: HBS-EP (10 mM HEPES pH 7.4, 150 mM NaCl, 3 mM EDTA, 0.005% P20); EMSA: 5 nM RNA, protein buffer (40 mM Bis-Tris pH 7, 150 mM NaCl, 2 mM DTT presumed), 4% glycerol, 30 ug/mL yeast tRNA, RT; NMR: 150 mM NaCl, 20 mM Na phosphate pH 7.0, 5 mM DTT, 298 K; settings: protein: recombinant; tags: HisSUMO removed; label: 5' 32P; hairpin
mStau2 dsRBD4 = target: T5, mStau2 dsRBD4; test: EMSA; binds at micromolar concentrations; SPR: HBS-EP (10 mM HEPES pH 7.4, 150 mM NaCl, 3 mM EDTA, 0.005% P20); EMSA: 5 nM RNA, protein buffer (40 mM Bis-Tris pH 7, 150 mM NaCl, 2 mM DTT presumed), 4% glycerol, 30 ug/mL yeast tRNA, RT; NMR: 150 mM NaCl, 20 mM Na phosphate pH 7.0, 5 mM DTT, 298 K; settings: protein: recombinant; label: 5' 32P; hairpin
mStau2 dsRBD3-4 [5] = target: T1, mStau2 dsRBD3-4; test: EMSA; almost abolished; no complex observed; SPR: HBS-EP (10 mM HEPES pH 7.4, 150 mM NaCl, 3 mM EDTA, 0.005% P20); EMSA: 5 nM RNA, protein buffer (40 mM Bis-Tris pH 7, 150 mM NaCl, 2 mM DTT presumed), 4% glycerol, 30 ug/mL yeast tRNA, RT; NMR: 150 mM NaCl, 20 mM Na phosphate pH 7.0, 5 mM DTT, 298 K; settings: protein: recombinant; tags: HisSUMO removed; label: 5' 32P; hairpin, 3' ss extension
mStau2 dsRBD1-2 [6] = target: T2, mStau2 dsRBD1-2; test: as above; settings: protein: recombinant; tags: HisSUMO removed; label: 5' 32P; hairpin, 3' ss extension

Binder	binding result (mStau2 dsRBD3-4 [1])	binding result (mStau2 dsRBD1-2 [2])	binding result (mStau2 full-length)	further results
GGACAUGCAAUUUGUGUAUGUAUAUA (structured_RNA) [8 bp SRS2 stem-loop (7bpSRS2+5)]	binds	binds		
GGGACAUGCACAUGCAAUUUGUGUAUGUGUAUGU (structured_RNA) [Rgs4 SRS2 (EMSA transcript)]			binds	binding result (mStau2 dsRBD3-4 [3]): binds; binding result (mStau2 dsRBD3): no binding; binding result (mStau2 dsRBD1-2 [4]): binds; binding result (mStau2 dsRBD4): binds
GGACAUGCACAAUUUGUGUGUAUGUAUAUA (structured_RNA) [10 bp SRS2 stem-loop (9bpSRS2+5)]	binds	binds		
GGACAUGCACAUGAUUUGUAUGUGUAUGUAUAUA (structured_RNA) [12 bp SRS2 stem-loop (11bpSRS2+5)]	binds	binds		
GGACAUGCAUUUGGUAUGUAUAUA (structured_RNA) [7 bp SRS2 stem-loop (6bpSRS2+5)]				binding result (mStau2 dsRBD3-4 [5]): no binding; binding result (mStau2 dsRBD1-2 [6]): no binding
GGGUUCCGUCAAGCCACUGGGUCUUGAUGGAGC (structured_RNA) [Rgs4 SRS1]			binds	
